Like-named read-outs stand apart in the source and are kept apart here.
T1: His-huTDP-43 domain III (amino acid residues 183-273) (human)
T1 construct: Amino terminal His-tagged fragment, E. coli
T1 chain: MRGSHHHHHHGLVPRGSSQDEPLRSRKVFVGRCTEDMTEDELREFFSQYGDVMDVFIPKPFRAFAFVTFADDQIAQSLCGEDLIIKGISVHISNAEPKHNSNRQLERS

T2: His-huTDP-43 domain I (amino acid residues 2-106) (human)
T2 construct: Amino terminal His-tagged fragment, E. coli; also called N-terminal domain
T2 chain: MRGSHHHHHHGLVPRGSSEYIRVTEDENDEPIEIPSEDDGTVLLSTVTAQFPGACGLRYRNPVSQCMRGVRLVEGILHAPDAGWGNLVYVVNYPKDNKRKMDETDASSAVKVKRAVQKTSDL

T3: His-huTDP-43 domain II (amino acid residues 99-204) (human)
T3 construct: Amino terminal His-tagged fragment, E. coli
T3 chain: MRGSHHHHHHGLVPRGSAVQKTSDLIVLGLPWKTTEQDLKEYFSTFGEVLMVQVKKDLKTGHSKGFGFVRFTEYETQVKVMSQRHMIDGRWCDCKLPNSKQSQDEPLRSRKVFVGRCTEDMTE

B1: NI-205.3F10 (antibody, human IgG1, V domains shown)
VH: EVQLLESGGDLVQPGGSLRLSCAASGFTFSSQAMSWVRQAPGKGLEWVSALSRTGDYTWYADSVRGRFTVSRDDSKNIFYLEMNSLRAEDTAVYYCAKNYYSSFGYNWAAFHIWGQGTMVTVSS
VL: EIVLTQSPGTLSLSPGERATLSCRASQDVNNNYLAWYQQKPGQAPRLLIYGASRRATGVPDRFSGRGSGTDFTLTINRLEPEDFAMYFCQQYGGSPPYTFGQGTKLEIK
notes: Human-derived
B2: NI-205.21G2 (antibody, human IgG1, V domains shown)
VH: QVQLVQSGAEVKKPGASVKVSCKTSGYSFTSYTLHWVRQAPGHRPEWMGWINAAFINTKYSQKFQGRITLTRDTSANIAYLELRSLTTEDTAVYYCARRASGSNGLDVWGQGTTVTVSS
VL: DIQMTQSPSSLSASVGDRITITCQASRDITNYLNWYQQKPGKAPKLLIYDASYLETGVPSTFSGSGSGTHFTLTISSLQPDDFATYYCQQYDSVPLTFGGGTKVEIK
notes: Human-derived
B3: NI-205.51C1 (antibody, human IgG1, V domains shown)
VH: EVQLVESGGGLVQPGGSLRISCTTSGFIFSDYWMHWVRQAPGKGLTWVSRINLDGSDTIYADSVKGRFTISRDNDKNTLYLQMNSLRVEDTAIYYCARSRKSVWGQGTMVTVSS
VL: QSALTQPASVSGSPGQSITISCTGSNTDVGAYDYVSWSQQLPGKAPKFVIFDVDVRPSGISDRFSGSKSGNTASLTISGLQAEDEADYYCSSYTKSGTLVFGGGTKVTVV
notes: Human-derived
B4: NI-205.21G1 (antibody, human IgG1, V domains shown)
VH: QVQLVESGGGVVQPGMSLRLSCAASGFSFSSHGMHWVRQTPGKGLEWLAVISYDASNKSYADSVKGRFTISRDNSKKTLYLQMDSLRVEDTALYYCANAFSSSASGGYWGQGTLVTVSS
VL: DVVMTQSPLSLPVTLGQPASISCRSSQSLVHSDGVTYLNWFQQRPGQSPRRLIYKVSNRDSGVPDRFSGSGSGTDFTLEISRVEAEDVGIYYCMQGTHWPPWTFGQGTKVEIK
notes: Human-derived; also called NI-21G1
B5: NI-205.44B2 (antibody, human IgG1, V domains shown)
VH: QVQLQESGPGVVKPSQTLSLTCTVSGVSVGSGDYYWSWIRHHPGKGLEWIGYISFFGSSNYNPSLKGRVSMSVDTSNNQFSLNLKSVTAADTAVYFCATGNAYSFWGQGTMVTVSS
VL: QSALTQPASVSGSPGQSITISCTGTSSDIGTHNLVSWYQQHPGKAPKLIIYEIFERPSGISSRFTGSKSGNTASLTISGLQAEDEADYFCCAYSVTVIFGGGTKLTVL
notes: Human-derived; also called NI205.44B22

How the values were obtained:
[1] = molecular target: T1, His-huTDP-43 domain III (amino acid …); assay: Western blot
Protocol: (§1) Non-specific binding sites were blocked for 1 hr. at room temperature with PBST containing 2% BSA (Sigma, Buchs, Switzerland). Blots were incubated overnight with primary antibodies (10 nM) followed by either a donkey anti-human IgGγ-specific secondary antibody conjugated with HRP (Jackson ImmunoResearch, USA) or a goat-anti mouse IgG (H+L)-specific secondary antibody conjugated with HRP (Jackson ImmunoResearch, USA). Blots were developed using ECL and ImageQuant 350 detection (GE Healthcare, Otelfingen, Switzerland).
(§2) Commercially available TDP-43 specific antibody TARDBP (M01), clone 2E2-D3 (Abnova, Taiwan) was used as positive control for human TDP-43 detection whereas, an anti-human IgG Fcγ-specific antibody was used as a negative control. Binding of the human-derived antibodies to specific TDP-43 domains was determined by Western Blot analysis.

[2] = molecular target: T4, 6xHis-SUMO-TDP-43 (220-414) (human, UniProt Q13148 220-414); assay: capture ELISA, antigen held by anti-6xHis antibody
T4 construct: Captured on the plate by an anti-6xHis antibody; also called 6xHis/SUMO tagged truncated TDP-43; not shown: N-terminal 6xHis and SUMO tags from a modified pET19-b vector
Protocol: (§3) Non-specific binding sites were blocked for 1 hr at RT with PBS containing 1% BSA (Sigma) and 0.05% Tween-20 (Fisher Scientific). 6×His-SUMO-TDP43 proteins at a concentration of 1.7 μM were allowed to bind to antibody-coated plates for 1 hr at RT in PBS buffer containing 1% BSA, 300 mM arginine and 0.1% PEG 5000, pH 7.5. Plates were incubated for 1 hr at RT with human antibodies of present invention, titrated in a three-fold dilution series, followed by HRP conjugated anti-human IgG Fc γ (Jackson ImmunoResearch) in PBST containing 1% BSA. HRP activity was measured in a standard colorimetric assay. EC₅₀ values were calculated using a four-parameter logistic curve fit on Softmax pro software (Molecular Devices).
(§4) We measured the binding affinity of the human-derived TDP-43 specific antibodies provided herein to properly folded 6×His/SUMO tagged TDP-43 using a capture ELISA in which native TDP-43 was immobilized without direct adsorption on the surface of the ELISA plate. This was achieved by immobilizing an anti 6×His antibody which then captured native TDP-43. […] After this immobilization step, binding by human antibodies was tested in regular buffers without interference of TDP-43 aggregation.

[3] = molecular target: T5, 6xHis-SUMO-TDP-43 (1-414), properly folded full length (human, UniProt Q13148 1-414); assay: capture ELISA, antigen held by anti-6xHis antibody
T5 construct: Purified with KSCN and arginine, monomeric; captured on the plate by an anti-6xHis antibody; also called folded full-length TDP-43; 6xHis/SUMO tagged full length TDP-43; not shown: N-terminal 6xHis and SUMO tags from a modified pET19-b vector
Protocol: as §3, §4

[4] = molecular target: T6, recombinant full-length His-tagged human TDP-43 (2-414) (human, UniProt Q13148 2-414); assay: direct ELISA, coated antigen
T6 construct: Amino terminal His tag, made in E. coli, purified in 8 M urea; also called full length TDP-43; full-length TDP-43
Protocol: (§5) The half maximal effective concentration (EC₅₀) of the human-derived TDP-43-specific antibodies for human TDP-43 and their target target-specificity was determined substantially as described in Example 2 above. Briefly, 96 well microplates (Corning) were coated with recombinant full length TDP-43 (Biogen Idec, USA), Escherichia coli extract and BSA (Sigma, Buchs, Switzerland), diluted to a concentration of 5 μg/ml in carbonate ELISA coating buffer (pH 9.6) overnight at 4° C. […] Non-specific binding sites were blocked for 1 hr. at room temperature with PBS containing 2% BSA (Sigma, Buchs, Switzerland). Human TDP-43-specific antibodies were diluted to the indicated concentrations and incubated 1 hr. at room temperature. Binding was determined using a donkey anti-human IgGγ-specific secondary antibody conjugated with HRP (Jackson ImmunoResearch, USA), followed by measurement of HRP activity in a standard colorimetric assay. EC₅₀ values were estimated by a non-linear regression using GraphPad Prism software (San Diego, USA).

[5] = molecular target: T6, recombinant full-length His-tagged …; assay: direct ELISA, coated antigen; remark: listed apart in the source
Protocol: as §5

[6] = molecular target: T2, His-huTDP-43 domain I (amino acid …); assay: direct ELISA, His-tagged TDP-43 fragments coated at 6.6 ug/ml, OD 450
Protocol: (§6) Non-specific binding sites were blocked for 1 hr. at room temperature with PBST containing 2% BSA (Sigma, Buchs, Switzerland). Antibodies were incubated 1 hr. at room temperature. Binding was determined using either a donkey anti-human IgGγ-specific antibody conjugated with HRP (Jackson ImmunoResearch, USA) or a goat-anti mouse IgG (H+L)-specific secondary antibody conjugated with HRP (Jackson ImmunoResearch, USA)., followed by measurement of HRP activity in a standard colorimetric assay.

[7] = molecular target: T3, His-huTDP-43 domain II (amino acid …); assay: as above
Protocol: as §6

[8] = molecular target: T7, His-huTDP-43 domain IV (amino acid residues 258-414) (human, UniProt Q13148 258-414); assay: as above
T7 construct: Amino terminal His-tagged fragment, E. coli, solubilized in 8 M urea; also called Glycine-rich domain
Protocol: as §6

[9] = molecular target: T3, His-huTDP-43 domain II (amino acid …); assay: Western blot
Protocol: as §1, §2

[10] = molecular target: T1, His-huTDP-43 domain III (amino acid …); assay: direct ELISA, His-tagged TDP-43 fragments coated at 6.6 ug/ml, OD 450
Protocol: as §6

[11] = molecular target: T1, His-huTDP-43 domain III (amino acid …); assay: Western blot, 300 ng recombinant protein per lane, primary antibody 10 nM
Protocol: as §1

[12] = molecular target: T2, His-huTDP-43 domain I (amino acid …); assay: as above
Protocol: as §1

[13] = molecular target: T3, His-huTDP-43 domain II (amino acid …); assay: as above
Protocol: as §1

[14] = molecular target: T8, BSA (bovine, UniProt P02769); assay: direct ELISA, BSA coated at 5 ug/ml as control, OD 450
T8 construct: control coating in the EC50 ELISA; also called bovine serum albumin (Sigma, Buchs, Switzerland)
Protocol: as §5, with “To determine the” for “The”, “to evaluate target-specificity,” for “their target target-specificity was determined substantially as described in Example 2 above. Briefly,”
The half maximal effective concentration (EC₅₀) of the human-derived TDP-43-specific antibodies for human TDP-43 and their target target-specificity was determined substantially as described in Example 2 above. […]

[15] = molecular target: T1, His-huTDP-43 domain III (amino acid …); assay: direct ELISA, TDP-43 fragments coated at 6.6 ug/ml, OD 450
Protocol: as §6

[16] = molecular target: T2, His-huTDP-43 domain I (amino acid …); assay: as above
Protocol: as §6

[17] = molecular target: T3, His-huTDP-43 domain II (amino acid …); assay: as above
Protocol: as §6

T7 sequence (Q13148 other isoform, or with tags, fused parts or gaps limits assumed): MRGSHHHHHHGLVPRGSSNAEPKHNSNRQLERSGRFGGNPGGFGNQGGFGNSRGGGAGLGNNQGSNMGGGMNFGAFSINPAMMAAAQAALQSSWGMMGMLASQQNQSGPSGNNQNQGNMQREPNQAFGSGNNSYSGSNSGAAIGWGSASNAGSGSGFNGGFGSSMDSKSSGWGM
T5 sequence (Q13148 whole entry): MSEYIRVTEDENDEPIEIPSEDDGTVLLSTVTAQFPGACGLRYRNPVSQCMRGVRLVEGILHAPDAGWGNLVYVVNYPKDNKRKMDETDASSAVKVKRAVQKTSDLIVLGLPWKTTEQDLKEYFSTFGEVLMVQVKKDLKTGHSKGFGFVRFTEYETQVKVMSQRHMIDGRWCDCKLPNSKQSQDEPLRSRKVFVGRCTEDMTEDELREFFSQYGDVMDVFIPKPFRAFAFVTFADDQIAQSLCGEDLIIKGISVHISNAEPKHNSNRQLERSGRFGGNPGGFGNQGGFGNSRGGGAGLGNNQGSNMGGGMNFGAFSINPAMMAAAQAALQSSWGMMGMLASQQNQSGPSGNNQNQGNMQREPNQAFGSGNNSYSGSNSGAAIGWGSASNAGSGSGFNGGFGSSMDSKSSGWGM
T4 sequence (Q13148 220-414): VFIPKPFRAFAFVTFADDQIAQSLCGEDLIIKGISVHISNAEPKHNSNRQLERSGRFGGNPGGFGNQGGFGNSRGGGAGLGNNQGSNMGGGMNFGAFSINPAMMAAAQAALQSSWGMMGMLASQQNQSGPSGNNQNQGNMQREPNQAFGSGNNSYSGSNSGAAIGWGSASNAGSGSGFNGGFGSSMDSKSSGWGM
T8 sequence (P02769 25-607 limits assumed): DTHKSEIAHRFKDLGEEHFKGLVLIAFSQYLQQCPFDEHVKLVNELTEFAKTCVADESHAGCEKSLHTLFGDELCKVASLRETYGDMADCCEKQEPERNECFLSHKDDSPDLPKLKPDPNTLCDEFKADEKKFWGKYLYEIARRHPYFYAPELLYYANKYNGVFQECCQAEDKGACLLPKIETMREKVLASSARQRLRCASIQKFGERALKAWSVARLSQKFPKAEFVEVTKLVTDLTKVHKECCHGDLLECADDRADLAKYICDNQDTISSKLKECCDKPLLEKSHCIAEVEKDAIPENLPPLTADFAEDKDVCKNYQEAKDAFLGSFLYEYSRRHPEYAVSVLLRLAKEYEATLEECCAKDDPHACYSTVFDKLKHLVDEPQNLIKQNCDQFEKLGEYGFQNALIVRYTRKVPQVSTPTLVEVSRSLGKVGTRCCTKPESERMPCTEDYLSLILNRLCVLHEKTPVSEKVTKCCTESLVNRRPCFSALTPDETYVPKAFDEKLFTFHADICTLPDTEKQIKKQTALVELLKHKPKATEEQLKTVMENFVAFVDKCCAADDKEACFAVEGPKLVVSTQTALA

Binder | binding result [1] | binding result [2] | EC50 [3] [nM] | EC50 [4] [nM] | EC50 [5] [nM] | binding result [6] | binding result [7] | binding result [8] | binding result [9] | binding result [10] | binding result [11] | binding result [12] | binding result [13] | EC50 [2] [nM] | binding result [14] | binding result [15] | binding result [16] | binding result [17]
B1 | binds | no binding | > 90 | 1.4 to 2.8 | 1.4 | no binding | no binding | no binding |  |  |  |  |  |  |  |  |  | 
B2 |  | no binding | 3.6 | 0.24 | 0.24 | no binding |  | no binding | binds | no binding |  |  |  |  |  |  |  | 
B3 | binds | no binding | 1.1 | 0.18 | 0.18 | no binding | no binding | no binding |  |  |  |  |  |  |  |  |  | 
B4 |  |  | 4.4 | 4.1 | 4.1 |  |  |  |  |  | no binding (tested: 10 nM) | no binding (tested: 10 nM) | no binding (tested: 10 nM) | 0.33 | no binding (tested: about 4x10^5 pM) |  |  | 
B5 |  |  | > 125 |  | 2.8 |  |  |  |  |  |  |  |  | 33.5 |  | no binding | no binding | no binding
